Test results from paper PMC4872150.

Biological target: nucleolin (UniProt P19338)
Test: SPR
Conditions: BIAcore 3000, nucleolin on CM5 chip, 10 mM HEPES, 150 mM NaCl, 3 mM EDTA, 0.005% surfactant P20, pH 7.4, 25 °C

Sequence of UniProt P19338 (P19338 whole entry): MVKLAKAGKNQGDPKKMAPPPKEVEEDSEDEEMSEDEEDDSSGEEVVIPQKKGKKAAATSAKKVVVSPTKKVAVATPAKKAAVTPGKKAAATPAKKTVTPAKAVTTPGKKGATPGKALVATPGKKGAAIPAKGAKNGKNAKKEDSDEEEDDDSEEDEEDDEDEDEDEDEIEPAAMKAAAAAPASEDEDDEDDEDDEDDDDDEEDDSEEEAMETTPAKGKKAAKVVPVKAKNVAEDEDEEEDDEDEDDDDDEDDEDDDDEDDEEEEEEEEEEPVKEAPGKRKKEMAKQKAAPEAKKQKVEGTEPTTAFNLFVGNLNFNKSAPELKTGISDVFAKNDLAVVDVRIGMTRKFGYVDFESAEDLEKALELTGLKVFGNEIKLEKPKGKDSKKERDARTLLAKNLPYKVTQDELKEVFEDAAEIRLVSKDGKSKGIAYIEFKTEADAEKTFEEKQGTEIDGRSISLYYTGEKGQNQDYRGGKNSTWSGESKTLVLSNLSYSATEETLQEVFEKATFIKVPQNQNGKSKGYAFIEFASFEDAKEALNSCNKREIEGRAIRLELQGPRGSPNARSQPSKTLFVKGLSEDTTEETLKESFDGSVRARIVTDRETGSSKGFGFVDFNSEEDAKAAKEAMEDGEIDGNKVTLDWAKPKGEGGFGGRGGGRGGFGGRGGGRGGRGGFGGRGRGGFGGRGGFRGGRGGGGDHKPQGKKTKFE

Sequence: GGTGGTGGTGGNTGTGGTGGTGGNGG [FAN-1224dI]
- Kd (N = 2'-deoxyinosine at positions 12 and 24 (replacing T)): 32.2 nM

Sequence: GGTGGTGGTGGTTGNGGTGGTGGNGG [FAN-1524dI]
- Kd (N = 2'-deoxyinosine at positions 15 and 24 (replacing T)): 37 nM

Sequence: GGTGGTGGTGGTTGTGGTGGTGGTGG [AS1411]
- Kd: 169 nM

Sequence: GGTGGTGGTGGTNGTGGTGGTGGNGG [FAN-1324dI]
- Kd (N = 2'-deoxyinosine at positions 13 and 24 (replacing T)): 30.9 nM
